Substitutions are numbered along the chain they refer to.
B1: HC2_LC2 (antibody, V domains shown)
VH: EVQLVESGGGLVQPGGSLRLSCAASGFTFSNAAMYWVRQAPGKGLELVSRIRTKPNNYATYHADSVKGRFTISRDNSKNTLYLQMNSLRAEDTAVYYCTADMATGDYWGQGTLVTVSS
VL: DIQMTQSPSSLSASVGDRVTITCKASQNINKNLDWYQQKPGKAPKPLIYSTNNLQTGVPSRFSGSGSGTDFTLTISSLQPEDFATYYCYQYKSAWTFGQGTKVEIK
notes: humanized 20H4 IgG
B2: HC3_LC4 (antibody, V domains shown)
VH: B1 VH with L81V
VL: EIVMTQSPATLSLSPGERATLSCKASQNINKNLDWYQQKPGQAPRLLIYSTNNLQTGIPARFSGSGSGTDFTLTISSLQPEDFAVYYCYQYKSAWTFGQGTKVEIK
notes: humanized 20H4 IgG
B3: HC2_LC3 (antibody, V domains shown)
VH: B1 VH
VL: B1 VL with F71Y
notes: humanized 20H4 IgG
B4: HC3_LC3 (antibody, V domains shown)
VH: B1 VH with L81V
VL: B1 VL with F71Y
notes: humanized 20H4 IgG
B5: HC5_LC1 (antibody, V domains shown)
VH: B1 VH with V48L, S49A, N76D, L81V
VL: B1 VL with P46L
notes: humanized 20H4 IgG
B6: HC2_LC5 (antibody, V domains shown)
VH: B1 VH
VL: B2 VL with L46P
notes: humanized 20H4 IgG
B7: HC3_LC1 (antibody, V domains shown)
VH: B1 VH with L81V
VL: B1 VL with P46L
notes: humanized 20H4 IgG
B8: HC3_LC6 (antibody, V domains shown)
VH: B1 VH with L81V
VL: B2 VL with L46P, I58V, F71Y
notes: humanized 20H4 IgG
B9: HC5_LC4 (antibody, V domains shown)
VH: B1 VH with V48L, S49A, N76D, L81V
VL: B2 VL
notes: humanized 20H4 IgG
B10: HC5_LC6 (antibody, V domains shown)
VH: B1 VH with V48L, S49A, N76D, L81V
VL: B2 VL with L46P, I58V, F71Y
notes: humanized 20H4 IgG
B11: HC3_LC2 (antibody, V domains shown)
VH: B1 VH with L81V
VL: B1 VL
notes: humanized 20H4 IgG
B12: HC3_LC5 (antibody, V domains shown)
VH: B1 VH with L81V
VL: B2 VL with L46P
notes: humanized 20H4 IgG
B13: HC2_LC6 (antibody, V domains shown)
VH: B1 VH
VL: B2 VL with L46P, I58V, F71Y
notes: humanized 20H4 IgG
B14: HC5_LC3 (antibody, V domains shown)
VH: B1 VH with V48L, S49A, N76D, L81V
VL: B1 VL with F71Y
notes: humanized 20H4 IgG
B15: HC2_LC1 (antibody, V domains shown)
VH: B1 VH
VL: B1 VL with P46L
notes: humanized 20H4 IgG
B16: HC5_LC2 (antibody, V domains shown)
VH: B1 VH with V48L, S49A, N76D, L81V
VL: B1 VL
notes: humanized 20H4 IgG
B17: HC5_LC5 (antibody, V domains shown)
VH: B1 VH with V48L, S49A, N76D, L81V
VL: B2 VL with L46P
notes: humanized 20H4 IgG
B18: HC2_LC4 (antibody, V domains shown)
VH: B1 VH
VL: B2 VL
notes: humanized 20H4 IgG
B19: Chimeric 20H4 (antibody, human IgG1, kappa, V domains shown)
VH: AVQLVESGGGLVQPKESLKISCAASGFTFSNAAMYWVRQAPGKGLELLARIRTKPNNYATYHADSVKGRFTISRDDSQSMVYLHMGNLKTEDTAMYYCTADMATGDYWGPGVMVTVSS
VL: DIQMTQSPPVLSVSVGDRVTLSCKASQNINKNLDWYQQKHGEAPKPLIYSTNNLQTGVPSRFSGSGSGTDYTLTISSLQPEDVATYYCYQYKSAWTFGGGTKLELRR
notes: also called Chi 20H4; chimeric 20H4 control
B20: HC6_LC_k3_3 (antibody, V domains shown)
VH: B1 VH with N76D
VL: B2 VL with K31Q, L46P, Q55K
B21: HC5_LC_k3_5 (antibody, V domains shown)
VH: B1 VH with V48L, S49A, N76D, L81V
VL: B2 VL with N32Q, L46P, Q55K
B22: HC6_LC_k3_6 (antibody, V domains shown)
VH: B1 VH with N76D
VL: B2 VL with Q27A, N32Q, L46P, Q55K
B23: HC6_LC_k3_10 (antibody, V domains shown)
VH: B1 VH with N76D
VL: B2 VL with N30S, K31N, N32D, L46P, Q55K
B24: HC6_LC_k3_8 (antibody, V domains shown)
VH: B1 VH with N76D
VL: B2 VL with N28G, N30S, K31N, N32Y, L46P, Q55K
B25: HC6_LC_k3_9 (antibody, V domains shown)
VH: B1 VH with N76D
VL: B2 VL with N28G, N30S, K31N, N32Y, D34A, L46P, Q55K
B26: HC6_LC_k3_11 (antibody, V domains shown)
VH: B1 VH with N76D
VL: B2 VL with N30S, K31N, N32Q, L46P, Q55K
B27: HC5_LC_k3_4 (antibody, V domains shown)
VH: B1 VH with V48L, S49A, N76D, L81V
VL: B2 VL with K31E, L46P, Q55K
B28: 20H4_HC5_LC_k3_2_v2 (antibody, V domains shown)
VH: B1 VH with V48L, S49A, N76D, L81V
VL: B2 VL with L46P
B29: HC5_LC_k3_2_v1 (antibody, V domains shown)
VH: B1 VH with V48L, S49A, N76D, L81V
VL: B2 VL with L46P, Q55K
B30: HC6_LC_k3_12 (antibody, V domains shown)
VH: B1 VH with N76D
VL: B2 VL with K31D, L46P, Q55K
B31: HC6_LC_k3_4 (antibody, V domains shown)
VH: B1 VH with N76D
VL: B2 VL with K31E, L46P, Q55K
B32: HC5_LC_k3_6 (antibody, V domains shown)
VH: B1 VH with V48L, S49A, N76D, L81V
VL: B2 VL with Q27A, N32Q, L46P, Q55K
B33: HC6_LC_k3_13 (antibody, V domains shown)
VH: B1 VH with N76D
VL: B2 VL with K31A, L46P, Q55K
B34: HC6_LC_k3_5 (antibody, V domains shown)
VH: B1 VH with N76D
VL: B2 VL with N32Q, L46P, Q55K
B35: HC5_LC_k3_3 (antibody, V domains shown)
VH: B1 VH with V48L, S49A, N76D, L81V
VL: B2 VL with K31Q, L46P, Q55K
B36: HC6_LC_k3_1 (antibody, V domains shown)
VH: B1 VH with N76D
VL: B2 VL with K31N, L46P, Q55K
B37: HC6_LC_k3_7 (antibody, V domains shown)
VH: B1 VH with N76D
VL: B2 VL with N30S, K31N, N32Y, L46P, Q55K

biological target: T1, human alpha-synuclein monomer (human, UniProt P37840 1-140); test: SPR (Biacore 8K), IgG captured on anti-human Fc, aSyn monomer injected

Kd	Binder
3.95 nM	B1

biological target: T1, human alpha-synuclein monomer; test: as above; remark: another data set of the same source

Kd	Binder
2.33 nM	B1
9.08 nM	B2
6.59 nM	B3
5.2 nM	B4
1.97 nM	B5
4.11 nM	B6
2.12 nM	B7
2.74 nM	B8
8.48 nM	B9
2.78 nM	B10
1.63 nM	B11
2.4 nM	B12
5.27 nM	B13
5.17 nM	B14
3.21 nM	B15
1.56 nM	B16
2.46 nM	B17
9.78 nM	B18
2.96 nM	B19

biological target: T1, human alpha-synuclein monomer; test: as above; remark: another data set of the same source

Kd	Binder
0.16 nM	B20
0.13 nM	B21
0.14 nM	B22
0.17 nM	B23
0.22 nM	B24
0.17 nM	B25
0.24 nM	B26
0.15 nM	B27
1.3 nM	B28
0.17 nM	B29
0.15 nM	B30
0.18 nM	B31
0.19 nM	B32
0.17 nM	B33
0.21 nM	B34
0.17 nM	B35
0.16 nM	B36
0.22 nM	B37

— patent publication US20230074436A1 (DENALI THERAPEUTICS, published 2023)
